We go through five compounds from paper PMC11846896, “Phage parasites targeting phage homologous recombinases provide antiviral immunity” (Nature Communications, 2025).

One series has as its target T1, Stl2-Sak4_52A complex (Staphylococcus phage 52A, UniProt Q4ZAS5).
T1 construct: both from E. coli BL21, mixed 1:1; with SaPI2 transcriptional repressor Stl (Staphylococcus aureus)
As to the kind of experiment: cryo-EM structure of the complex ([…] Å). It counts as binding. To be noted: 2 mM ATPγS, 20 mM Tris pH 7.6, 100 mM NaCl, 1 mM DTT, 37 °C 10 min, Stl2 1:1; site at Sak4_52A protomer interface (Lys41, Thr42, Tyr216 of one; Lys229, Arg231, His232 of the next).

Series [1] deals with Stl2 (SaPI2-encoded transcriptional repressor Stl), wild type, C-terminally histidine tagged (Staphylococcus aureus (SaPI2)). As to the kind of experiment: mass photometry; single proteins; diluted to 50 to 100 nM in 20 mM Tris pH 8.0, 0.5 mM EDTA, 200 mM NaCl, 2 mM DTT; self-association (dimer and large oligomers).
Series [2] concerns the target Sak80αΔCTD (truncated Sak80α with its CTD removed) (phage 80α (Staphylococcus aureus phage)). As to the kind of experiment: cryo-EM structure; Sak80αΔCTD at 1.5 mg/ml in 20 mM Tris-HCl pH 7.6, 100 mM NaCl, 1 mM DTT; C18 symmetry.
Series [3] addresses Sak80α, full-length, untagged, co-expressed with Stl2 from pETDuet-1 (phage 80α (Staphylococcus aureus phage)). The series is described as follows: cryo-EM structure; Stl2-Sak80α complex co-expressed from pETDuet-1 and co-purified, third elution peak of Superose 6, 1.5 mg/ml; D1 symmetry.
Series [4] deals with Stl2-ΔCTD (Staphylococcus aureus pathogenicity island SaPI2). As to the kind of experiment: EMSA. The settings on record: EMSA: 20 mM Tris-HCl pH 7.0, 100 mM NaCl, 5% glycerol, 50 ng/µl BSA, 1 ng/µl salmon sperm DNA, 5 mM DTT, 2 nM FAM-DNA, room temperature 30 min; Stl2 + 5 mM ….

T1 sequence (A0FIL5 entry or part of it): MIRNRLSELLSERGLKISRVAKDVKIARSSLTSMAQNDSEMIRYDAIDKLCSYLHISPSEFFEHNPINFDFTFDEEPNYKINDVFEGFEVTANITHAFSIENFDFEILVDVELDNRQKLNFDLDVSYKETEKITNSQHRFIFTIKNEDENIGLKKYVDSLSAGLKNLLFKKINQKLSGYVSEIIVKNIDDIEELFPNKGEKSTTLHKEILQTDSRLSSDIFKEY
T1 sequence (Q4ZAS5 entry or part of it): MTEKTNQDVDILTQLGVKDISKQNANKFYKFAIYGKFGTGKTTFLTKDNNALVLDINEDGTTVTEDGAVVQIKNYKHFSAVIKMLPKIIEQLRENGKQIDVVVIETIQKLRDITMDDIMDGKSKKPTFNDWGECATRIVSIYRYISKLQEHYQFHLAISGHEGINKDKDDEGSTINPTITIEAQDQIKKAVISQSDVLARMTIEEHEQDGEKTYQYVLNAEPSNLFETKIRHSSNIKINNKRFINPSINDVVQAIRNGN

For `Nc1ncnc2c1ncn2[C@@H]1O[C@H](COP(=O)(O)OP(=O)(O)OP(O)(O)=S)[C@@H](O)[C@H]1O` [ATPγS], the “cryo-EM structure of the complex (3.35 Å)” value on Stl2-Sak4_52A complex is “The nucleotide ATPγS is boxed and zoomed in on the left-hand side”.
“Stl2 (SaPI2-encoded transcriptional repressor Stl), wild type, C-terminally histidine tagged (natural protein)” registered a stoichiometry N in series [1] of 2.
Take “Sak80αΔCTD (truncated Sak80α with its CTD removed) (domain or fragment)”: in series [2], the stoichiometry N is 18.
As to “Sak80α, full-length, untagged, co-expressed with Stl2 from pETDuet-1 (natural protein)”, the stoichiometry N in series [3] amounted to 17.
In the case of SaPI2 IGR (stl-str intergenic region), the binding signal (fold reduction in affinity vs wild type) in series [4] came to 30.
